Substrate in the data set: O=C(O)[C@H]1O[C@@H](Oc2ccc([N+](=O)[O-])cc2)[C@H](O)[C@@H](O)[C@@H]1O
In words: TP_TRANSPORTER: uptake in bile canalicular membrane vesicles from Wistar rat. Format: functional, cell membranes, Bile canalicular membrane vesicle.

B1: ATP-binding cassette sub-family C member 2 (Rattus norvegicus) (protein)
chain: MDKFCNSTFWDLSLLESPEADLPLCFEQTVLVWIPLGFLWLLAPWQLYSVYRSRTKRSSITKFYLAKQVFVVFLLILAAIDLSLALTEDTGQATVPPVRYTNPILYLCTWLLVLAVQHSRQWCVRKNSWFLSLFWILSVLCGVFQFQTLIRALLKDSKSNMAYSYLFFVSYGFQIVLLILTAFSGPSDSTQTPSVTASFLSSITFSWYDRTVLKGYKHPLTLEDVWDIDEGFKTRSVTSKFEAAMTKDLQKARQAFQRRLQKSQRKPEATLHGLNKKQSQSQDVLVLEEAKKKSEKTTKDYPKSWLIKSLFKTFHVVILKSFILKLIHDLLVFLNPQLLKLLIGFVKSSNSYVWFGYICAILMFAVTLIQSFCLQSYFQHCFVLGMCVRTTVMSSIYKKALTLSNLARKQYTIGETVNLMSVDSQKLMDATNYMQLVWSSVIQITLSIFFLWRELGPSILAGVGVMVLLIPVNGVLATKIRNIQVQNMKNKDKRLKIMNEILSGIKILKYFAWEPSFQEQVQGIRKKELKNLLRFGQLQSLLIFILQITPILVSVVTFSVYVLVDSANVLNAEKAFTSITLFNILRFPLSMLPMVTSSILQASVSVDRLERYLGGDDLDTSAIRRVSNFDKAVKFSEASFTWDPDLEATIQDVNLDIKPGQLVAVVGTVGSGKSSLVSAMLGEMENVHGHITIQGSTAYVPQQSWIQNGTIKDNILFGSEYNEKKYQQVLKACALLPDLEILPGGDMAEIGEKGINLSGGQKQRVSLARAAYQDADIYILDDPLSAVDAHVGKHIFNKVVGPNGLLAGKTRIFVTHGIHFLPQVDEIVVLGKGTILEKGSYRDLLDKKGVFARNWKTFMKHSGPEGEATVNNDSEAEDDDDGLIPTMEEIPEDAASLAMRRENSLRRTLSRSSRSSSRRGKSLKNSLKIKNVNVLKEKEKEVEGQKLIKKEFVETGKVKFSIYLKYLQAVGWWSILFIILFYGLNNVAFIGSNLWLSAWTSDSDNLNGTNNSSSHRDMRIGVFGALGLAQGICLLISTLWSIYACRNASKALHGQLLTNILRAPMRFFDTTPTGRIVNRFSGDISTVDDLLPQTLRSWMMCFFGIAGTLVMICMATPVFAIIIIPLSILYISVQVFYVATSRQLRRLDSVTKSPIYSHFSETVTGLPIIRAFEHQQRFLAWNEKQIDINQKCVFSWITSNRWLAIRLELVGNLVVFCSALLLVIYRKTLTGDVVGFVLSNALNITQTLNWLVRMTSEAETNIVAVERISEYINVENEAPWVTDKRPPADWPRHGEIQFNNYQVRYRPELDLVLKGITCNIKSGEKVGVVGRTGAGKSSLTNCLFRILESAGGQIIIDGIDVASIGLHDLRERLTIIPQDPILFSGSLRMNLDPFNKYSDEEVWRALELAHLRSFVSGLQLGLLSEVTEGGDNLSIGQRQLLCLGRAVLRKSKILVLDEATAAVDLETDSLIQTTIRKEFSQCTVITIAHRLHTIMDSDKIMVLDNGKIVEYGSPEELLSNRGSFYLMAKEAGIENVNHTEL
On to B1, for which the Km was 20 µM.

The term Km denotes the substrate concentration at which the rate is half of its maximum.

The values are drawn from ChEMBL document CHEMBL2074302, “ATP-dependent transport for glucuronides in canalicular plasma membrane vesicles” (Biochem Biophys Res Commun, 1991).
